# In PMC6241527:
# Assays:
# [1] = target: H1 hemagglutinin (A/Solomon Islands/3/06) (influenza A virus (A/Solomon Islands/3/06, H1)); test: crystal structure
# [2] = target: H7 hemagglutinin (A/Shanghai/2/13) (influenza A virus (A/Shanghai/2/13, H7)); test: crystal structure
Substance,stoichiometry N [1],stoichiometry N [2]
H1 hemagglutinin (A/Solomon Islands/3/06) (natural protein),3,–
H7 hemagglutinin (A/Shanghai/2/13) (natural protein),–,3
